In assay [1] the target is T1, FKBP51 (Homo sapiens, UniProt Q13451).
T1 construct: gene FKBP5; full-length (Gst-tag-free)
T1 sequence (Q13451 1-457): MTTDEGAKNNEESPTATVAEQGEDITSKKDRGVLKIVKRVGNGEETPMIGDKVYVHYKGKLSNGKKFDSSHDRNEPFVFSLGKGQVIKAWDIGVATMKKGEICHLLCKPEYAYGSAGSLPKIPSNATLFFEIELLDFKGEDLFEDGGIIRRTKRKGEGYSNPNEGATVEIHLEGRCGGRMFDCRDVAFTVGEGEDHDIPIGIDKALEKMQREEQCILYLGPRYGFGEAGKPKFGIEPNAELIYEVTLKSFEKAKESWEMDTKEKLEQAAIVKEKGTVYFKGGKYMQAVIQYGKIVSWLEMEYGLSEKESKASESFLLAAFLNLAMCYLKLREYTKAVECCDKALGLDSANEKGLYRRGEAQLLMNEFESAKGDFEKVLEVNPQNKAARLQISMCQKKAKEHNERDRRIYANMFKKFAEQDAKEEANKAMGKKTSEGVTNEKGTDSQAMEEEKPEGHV
Kind of assay: dot-blot competition of Hsp90 C-terminal peptide-HRP (C90-HRP) with purified protein. Type of assay: binding.

Assay [2] has as its target T2, Tom34 (Homo sapiens, UniProt Q15785).
T2 construct: gene TOMM34; full-length (Gst-tag-free)
T2 sequence (Q15785 1-309): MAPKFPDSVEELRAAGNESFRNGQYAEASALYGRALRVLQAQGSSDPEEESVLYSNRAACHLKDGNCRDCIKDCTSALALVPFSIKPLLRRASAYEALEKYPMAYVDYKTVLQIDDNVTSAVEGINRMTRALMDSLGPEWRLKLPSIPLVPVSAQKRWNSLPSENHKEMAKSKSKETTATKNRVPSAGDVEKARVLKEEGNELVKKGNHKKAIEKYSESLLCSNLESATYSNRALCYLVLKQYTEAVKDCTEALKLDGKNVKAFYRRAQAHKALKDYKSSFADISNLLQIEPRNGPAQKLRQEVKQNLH
The description is as above. It counts as binding.

Assay [3] concerns the target T3, Tom70 (Homo sapiens, UniProt O94826).
T3 construct: gene TOMM70; cytoplasm-exposed domain of Tom70, amino acids 65-608 (Gst-tag-free)
T3 sequence (O94826 65-608): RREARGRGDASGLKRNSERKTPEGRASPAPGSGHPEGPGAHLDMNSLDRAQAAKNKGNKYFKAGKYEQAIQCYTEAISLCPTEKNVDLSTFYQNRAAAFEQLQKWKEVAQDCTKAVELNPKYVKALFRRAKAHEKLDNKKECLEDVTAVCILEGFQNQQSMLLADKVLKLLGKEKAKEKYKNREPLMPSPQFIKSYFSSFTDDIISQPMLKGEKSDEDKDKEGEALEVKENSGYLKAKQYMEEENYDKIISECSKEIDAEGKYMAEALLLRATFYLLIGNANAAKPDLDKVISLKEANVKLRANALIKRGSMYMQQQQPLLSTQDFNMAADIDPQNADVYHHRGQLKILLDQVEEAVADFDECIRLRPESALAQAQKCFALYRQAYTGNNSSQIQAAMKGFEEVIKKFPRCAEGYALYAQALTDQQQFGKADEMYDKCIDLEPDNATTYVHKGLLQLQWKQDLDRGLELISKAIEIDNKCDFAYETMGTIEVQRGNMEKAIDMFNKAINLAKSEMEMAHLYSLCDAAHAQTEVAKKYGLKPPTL
Described as above. It counts as binding.

Assay [4] deals with T4, PP5 (human, UniProt P53041 1-499).
T4 construct: PP5, human TPR protein, full length; Cloned into a pGEX6 vector; cDNA from the IMAGE consortium; source: E. coli BL21, purified (Gst‐trap 4B), Gst removed with PreScission protease
T4 sequence (looked up): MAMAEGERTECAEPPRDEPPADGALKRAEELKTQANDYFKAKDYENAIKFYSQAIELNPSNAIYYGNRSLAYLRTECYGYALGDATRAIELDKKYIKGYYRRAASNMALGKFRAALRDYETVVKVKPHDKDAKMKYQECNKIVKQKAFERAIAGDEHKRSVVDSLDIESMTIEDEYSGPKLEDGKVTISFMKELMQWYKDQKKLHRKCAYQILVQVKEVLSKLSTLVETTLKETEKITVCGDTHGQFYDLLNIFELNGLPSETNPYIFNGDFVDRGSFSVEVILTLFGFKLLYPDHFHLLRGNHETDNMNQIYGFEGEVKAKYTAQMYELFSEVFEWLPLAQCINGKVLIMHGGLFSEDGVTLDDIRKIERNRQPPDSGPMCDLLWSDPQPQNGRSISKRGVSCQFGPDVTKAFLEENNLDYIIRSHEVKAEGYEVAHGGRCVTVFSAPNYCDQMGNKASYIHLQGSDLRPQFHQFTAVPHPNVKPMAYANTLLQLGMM
Briefly: far-Western, overlay or dot blot; Gst‐tag‐free proteins applied to nitrocellulose membrane, blocked with 3% BSA in TBS‐T; C90‐HRP (1 × 500 dilution) incubated for 1 hour; ECL signal; with DMSO or increasing concentrations of the compound GMP‐1. As to conditions: both partners purified.

In assay [5] the target is T5, FKBP51 (human, UniProt Q13451 1-457).
T5 construct: FKBP51, human TPR protein, full length; Cloned into a pGEX6 vector; cDNA from the IMAGE consortium; source: E. coli BL21, purified (Gst‐trap 4B), Gst removed with PreScission protease
T5 sequence (looked up): T1 sequence (Q13451 1-457)
The assay is described as above. To be noted: both partners purified.

In assay [6] the target is T6, Tom70, cytoplasm‐exposed domain, amino acids 65‐608 (human, UniProt O94826 65-608).
T6 construct: Tom70, human, mitochondrial import receptor, cytoplasm‐exposed domain, amino acids 65‐608; Cloned into a pGEX6 vector; cDNA from the IMAGE consortium; also called human Tom70 protein; source: E. coli BL21, purified (Gst‐trap 4B), Gst removed with PreScission protease
T6 sequence (looked up): T3 sequence (O94826 65-608)
Described as above. To be noted: both partners purified.

The target in assay [7] is T7, Tom34 (human, UniProt Q15785 1-309).
T7 construct: Tom34, human TPR protein, full length; Cloned into a pGEX6 vector; cDNA from the IMAGE consortium; source: E. coli BL21, purified (Gst‐trap 4B), Gst removed with PreScission protease
T7 sequence (looked up): T2 sequence (Q15785 1-309)
The description is as above. As to conditions: both partners purified.

Ends that are not written are not given here.

`COCc1cc(O)n2c(n1)nc1ccccc12` [GMP-1, 2‐(methoxymethyl)pyrimido[1,2‐a]benzimidazol‐4‐ol]: the results for the IC50 in assay [1], in assay [2] and in assay [3] were 150 µM, 180 µM and 45 µM, respectively.

B1: Peptide of 6 × His tag and the 10 C‐terminal amino acids of human Hsp90 alpha, coupled to HRP (C90‐HRP) (peptide)
peptide: HHHHHHDDTSRMEEVD-OH
modifications: also: coupled to horse-radish peroxidase (HRP)
notes: 10 amino acids of the C‐terminus of human Hsp90 alpha; also called Hsp90‐derived peptide; Hsp90 peptide conjugated to HRP; source: synthetic peptide (GL Biochem, Shanghai), coupled to HRP with the Lightning‐link HRP labeling kit; not shown: His6, N-terminal, kept
Turning to B1, the binding result in assay [4], in assay [5], in assay [6] and in assay [7] was “binds” each time.

By IC50 is commonly meant the concentration at which inhibition is half-maximal. Read a low IC50 as inhibition by little substance.
